Measurements as given in paper PMC11897370 (Scientific Reports, 2025).

Target: the molecule itself
Assay: dynamic light scattering

B1: Wild type (Wt) peroxiredoxin 6 (Prdx6), recombinant rat (enzyme)
chain: MPGGLLLGDEAPNFEANTTIGHIRFHDFLGDSWGILFSHPRDFTPVCTTELGRAAKLAPEFAKRNVKLIALSIDSVEDHFAWSKDINAYNGAAPTEKLPFPIIDDKDRDLAILLGMLDPAEKDEKGMPVTARVVFIFGPDKKLKLSILYPATTGRNFDEILRVVDSLQLTASNPVATPVDWKKGESVMVLPTLPEEEAKQLFPKGVFTKELPSGKKYLRYTPQP
  stoichiometry N: 2

B2: D42A mutant of rat Prdx6 (enzyme)
chain: MPGGLLLGDEAPNFEANTTIGHIRFHDFLGDSWGILFSHPRAFTPVCTTELGRAAKLAPEFAKRNVKLIALSIDSVEDHFAWSKDINAYNGAAPTEKLPFPIIDDKDRDLAILLGMLDPAEKDEKGMPVTARVVFIFGPDKKLKLSILYPATTGRNFDEILRVVDSLQLTASNPVATPVDWKKGESVMVLPTLPEEEAKQLFPKGVFTKELPSGKKYLRYTPQP
  stoichiometry N: 2

B3: H79A mutant of rat Prdx6 (enzyme)
chain: MPGGLLLGDEAPNFEANTTIGHIRFHDFLGDSWGILFSHPRDFTPVCTTELGRAAKLAPEFAKRNVKLIALSIDSVEDAFAWSKDINAYNGAAPTEKLPFPIIDDKDRDLAILLGMLDPAEKDEKGMPVTARVVFIFGPDKKLKLSILYPATTGRNFDEILRVVDSLQLTASNPVATPVDWKKGESVMVLPTLPEEEAKQLFPKGVFTKELPSGKKYLRYTPQP
  stoichiometry N: 2
